Laboratory results taken from US20260328755 (published 2026).
Values belong to the binder of their own block, whether it stands above or below them.

Molecular target: T1, TL1A (TNFSF15) (human, UniProt O95150)
T1 chain: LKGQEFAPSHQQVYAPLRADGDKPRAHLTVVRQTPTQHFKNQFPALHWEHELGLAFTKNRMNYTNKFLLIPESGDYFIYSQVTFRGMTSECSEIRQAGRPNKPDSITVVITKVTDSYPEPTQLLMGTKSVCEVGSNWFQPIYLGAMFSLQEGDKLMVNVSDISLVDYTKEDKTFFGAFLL
Test: ELISA

- EC50: 0.324 nM
B1: heavy chain 512 antibody (S228P, L235E) (antibody)
chain 1: not shown
chain 2: EIVLTQSPGTLSLSPGERATLSCRASSSVSYMYWYQQKPGQAPRPLIYATSNLASGIPDRFSGSGSGTDFTLTISRLEPEDFAVYYCQQWEGNPRTFGGGTKLEIKRTVAAPSVFIFPPSDEQLKSGTASVVCLLNNFYPREAKVQWKVDNALQSGNSQESVTEQDSKDSTYSLSSTLTLSKADYEKHKVYACEVTHQGLSSPVTKSFNRGEC

- EC50: 0.252 nM
B2: heavy chain 513 antibody (S228P, F234A, L235A) (antibody)
chain 1: not shown
chain 2: B1 chain 2
